# Measurements from article PMC8575462, “PP2A/B55α substrate recruitment as defined by the retinoblastoma-related protein p107” (eLife, 2021).
# B1: GST-p107 R1R2 [not stated] / B55α (PP2A regulatory subunit B55α), endogenous in U-2 OS cells [human (endogenous in U-2 OS)] (parent complex)
# chain 1: KVPTCEEVIFPNNFETGNGGNVQGHLPLMPMSPLMHPRVKEVRTDSGSLRRDMQPLSPISVHERYSSPTAGSAKRRLF
# chain 2: MAGAGGGNDIQWCFSQVKGAVDDDVAEADIISTVEFNHSGELLATGDKGGRVVIFQQEQENKIQSHSRGEYNVYSTFQSHEPEFDYLKSLEIEEKINKIRWLPQKNAAQFLLSTNDKTIKLWKISERDKRPEGYNLKEEDGRYRDPTTVTTLRVPVFRPMDLMVEASPRRIFANAHTYHINSISINSDYETYLSADDLRINLWHLEITDRSFNIVDIKPANMEELTEVITAAEFHPNSCNTFVYSSSKGTIRLCDMRASALCDRHSKLFEEPEDPSNRSFFSEIISSISDVKFSHSGRYMMTRDYLSVKIWDLNMENRPVETYQVHEYLRSKLCSLYENDCIFDKFECCWNGSDSVVMTGSYNNFFRMFDRNTKRDITLEASRENNKPRTVLKPRKVCASGKRKKDEISVDSLDFNKKILHTAWHPKENIIAVATTNNLYIFQDKVN
# B2: Myc-B55α wild type [not stated] / Flag-pRB [not stated] (parent complex)
# chain 1: B1 chain 2
# chain 2: MPPKTPRKTAATAAAAAAEPPAPPPPPPPEEDPEQDSGPEDLPLVRLEFEETEEPDFTALCQKLKIPDHVRERAWLTWEKVSSVDGVLGGYIQKKKELWGICIFIAAVDLDEMSFTFTELQKNIEISVHKFFNLLKEIDTSTKVDNAMSRLLKKYDVLFALFSKLERTCELIYLTQPSSSISTEINSALVLKVSWITFLLAKGEVLQMEDDLVISFQLMLCVLDYFIKLSPPMLLKEPYKTAVIPINGSPRTPRRGQNRSARIAKQLENDTRIIEVLCKEHECNIDEVKNVYFKNFIPFMNSLGLVTSNGLPEVENLSKRYEEIYLKNKDLDARLFLDHDKTLQTDSIDSFETQRTPRKSNLDEEVNVIPPHTPVRTVMNTIQQLMMILNSASDQPSENLISYFNNCTVNPKESILKRVKDIGYIFKEKFAKAVGQGCVEIGSQRYKLGVRLYYRVMESMLKSEEERLSIQNFSKLLNDNIFHMSLLACALEVVMATYSRSTSQNLDSGTDLSFPWILNVLNLKAFDFYKVIESFIKAEGNLTREMIKHLERCEHRIMESLAWLSDSPLFDLIKQSKDREGPTDHLESACPLNLPLQNNHTAADMYLSPVRSPKKKGSTTRVNSTANAETQATSAFQTQKPLKSTSLSLFYKKVYRLAYLRLNTLCERLLSEHPELEHIIWTLFQHTLQNEYELMRDRHLDQIMMCSMYGICKVKNIDLKFKIIVTAYKDLPHAVQETFKRVLIKEEEYDSIIVFYNSVFMQRLKTNILQYASTRPPTLSPIPHIPRSPYKFPSSPLRIPGGNIYISPLKSPYKISEGLPTPTKMTPRSRILVSIGESFGTSEKFQKINQMVCNSDRVLKRSAEGSNPPKPLKKLRFDIEGSDEADGSKHLPGESKFQQKLAEMTSTRTRMQKQKMNDSMDTSNKEEK
# Variants of: B1
# Assay: GST pull-down, western blot; U2-OS lysates; triplicate; read off a plot
row,ratio to parent,Variant
1,~0.47,chain 1 KVPTCEEVIFPNNFETGNGGNVQGHLPLMPMSPLMHPRVKEVATDSGSLRRDMQPLSPISVHERYSSPTAGSAKRRLF
2,~1,chain 1 KVPTCEEVIFPNNFETGNGGNVQGHLPLMPMSPLMHPRVKEVRTDSGSLAADMQPLSPISVHERYSSPTAGSAKRRLF
3,~0.05,chain 1 KVPTCEEVIFPNNFETGNGGNVQGHLPLMPMSPLMHPAVAEVRTDSGSLRRDMQPLSPISVHERYSSPTAGSAKRRLF

# Variants of: B2
# Assay: co-immunoprecipitation (anti-Myc IP), western blot quantitation; 293T cells, co-transfected; read off a plot
row,Variant,ratio to parent
1,chain 1 MAGAGGGNDIQWCFSQVKGAVDDDVAEADIISTVEFNHSGELLATGDKGGRVVIFQQEQENKIQSHSRGEYNVYSTFQSHEPEFDYLKSLEIEEKINKIRWLPQKNAAQFLLSTNDKTIKLWKISERDKRPEGYNLKEEDGRYRDPTTVTTLRVPVFRPMDLMVEASPRRIFANAHTYHINSISINSDYETYLSADDLRINLWHLEITDRSFNIVDIKPANMEELTEVITAAEFHPNSCNTFVYSSSKGTIRLCDMRASALCDRHSKLFEEPEDPSNRSFFSAIISSISDVKFSHSGRYMMTRDYLSVKIWDLNMENRPVETYQVHEYLRSKLCSLYENDCIFDKFECCWNGSDSVVMTGSYNNFFRMFDRNTKRDITLEASRENNKPRTVLKPRKVCASGKRKKDEISVDSLDFNKKILHTAWHPKENIIAVATTNNLYIFQDKVN [chain 1 E283A],~0.3
2,chain 1 MAGAGGGNDIQWCFSQVKGAVDDDVAEADIISTVEFNHSGELLATGDKGGRVVIFQQEQENKIQSHSRGEYNVYSTFQSHEPEFDYLKSLEIEEKINKIRWLPQKNAAQFLLSTNDKTIKLWKISERDKRPEGYNLKEEDGRYRDPTTVTTLRVPVFRPMDLMVEASPRRIFANAHTYHINSISINSDYETYLSADKLRINLWHLEITDRSFNIVDIKPANMEELTEVITAAEFHPNSCNTFVYSSSKGTIRLCDMRASALCDRHSKLFEEPEDPSNRSFFSEIISSISDVKFSHSGRYMMTRDYLSVKIWDLNMENRPVETYQVHEYLRSKLCSLYENDCIFDKFECCWNGSDSVVMTGSYNNFFRMFDRNTKRDITLEASRENNKPRTVLKPRKVCASGKRKKDEISVDSLDFNKKILHTAWHPKENIIAVATTNNLYIFQDKVN [chain 1 D197K],~-0.2
3,chain 1 MAGAGGGNDIQWCFSQVKGAVDDDVAEADIISTVEFNHSGELLATGDKGGRVVIFQQEQENKIQSHSRGEYNVYSTFQSHEPEFDYLKSLEIEEKINKIRWLPQKNAAQFLLSTNDKTIKLWKISERDKRPEGYNLKEEDGRYRDPTTVTTLRVPVFRPMDLMVEASPRRIFANAHTYAINSISINSDYETYLSADDLRINLWHLEITDRSFNIVDIKPANMEELTEVITAAEFHPNSCNTFVYSSSKGTIRLCDMRASALCDRHSKLFEEPEDPSNRSFFSEIISSISDVKFSHSGRYMMTRDYLSVKIWDLNMENRPVETYQVHEYLRSKLCSLYENDCIFDKFECCWNGSDSVVMTGSYNNFFRMFDRNTKRDITLEASRENNKPRTVLKPRKVCASGKRKKDEISVDSLDFNKKILHTAWHPKENIIAVATTNNLYIFQDKVN [chain 1 H179A],~0.8
4,chain 1 MAGAGGGNDIQWCFSQVKGAVDDDVAEADIISTVEFNHSGELLATGDKGGRVVIFQQEQENKIQSHSRGEYNVYSTFQSHEPEFDYLKSLEIEEKINKIRWLPQKNAAQFLLSTNDKTIKLWKISERDKRPEGYNLKEEDGRYRDPTTVTTLRVPVFRPMDLMVEASPRRIFANAHTYHINSISINSDYETYLSADDLRINLWHLEITDRSFNIVDIKPANMEELTEVITAAEFHPNSCNTFVYSSSKGTIRLCDMRASALCDRHSKLFEEPEDPSNRSFFSEIISSISDVKFSHSGRYMMTRDYLSVKIWDLNMENRPVETYQVHEYLRSKLCSLYENDCIFDKFACCWNGSDSVVMTGSYNNFFRMFDRNTKRDITLEASRENNKPRTVLKPRKVCASGKRKKDEISVDSLDFNKKILHTAWHPKENIIAVATTNNLYIFQDKVN [chain 1 E347A],~0.55

# Second part, the variant after the results:
row,ratio to parent,Variant
1,~0.95,chain 1 MAGAGGGNDIQWCFSQVKGAVDDDVAEADIISTVEFNHSGELLATGDEGGRVVIFQQEQENKIQSHSRGEYNVYSTFQSHEPEFDYLKSLEIEEKINKIRWLPQKNAAQFLLSTNDKTIKLWKISERDKRPEGYNLKEEDGRYRDPTTVTTLRVPVFRPMDLMVEASPRRIFANAHTYHINSISINSDYETYLSADDLRINLWHLEITDRSFNIVDIKPANMEELTEVITAAEFHPNSCNTFVYSSSKGTIRLCDMRASALCDRHSKLFEEPEDPSNRSFFSEIISSISDVKFSHSGRYMMTRDYLSVKIWDLNMENRPVETYQVHEYLRSKLCSLYENDCIFDKFECCWNGSDSVVMTGSYNNFFRMFDRNTKRDITLEASRENNKPRTVLKPRKVCASGKRKKDEISVDSLDFNKKILHTAWHPKENIIAVATTNNLYIFQDKVN [chain 1 K48E]
2,~0.65,chain 1 MAGAGGGNDIQWCFSQVKGAVDDDVAEADIISTVEFNHSGELLATGDKGGRVVIFQQEQENKIQSHSRGEYNVYSTFQSHEPEFDYLKSLEIEEKINKIRWLPQKNAAQFLLSTNDKTIKLWKISERDKRPEGYNLKEEDGRYRDPTTVTTLRVPVFRPMDLMVEASPRRIFANAHTYHINSISINSDYETYLSADDLRINLWHLEITDRSFNIVDIKPANMEELTEVITAAEFHPNSCNTFVYSSSKGTIRLCDMRASALCDRHSKLFEEPEDPSNRSFFSEIISSISDVKFSHSGRYMMTRDYLSVKIWDLNMENRPVETYQVHEYLRSKLCSLYENDCIFDAFECCWNGSDSVVMTGSYNNFFRMFDRNTKRDITLEASRENNKPRTVLKPRKVCASGKRKKDEISVDSLDFNKKILHTAWHPKENIIAVATTNNLYIFQDKVN [chain 1 K345A]
